Assay results taken from article PMC10884834, “SPR spectroscopic analysis of myosin binding to wild type and mutant UNC45B” (microPublication Biology, 2024).

Experiments:
[1] = target: myosin II, full-length, purified from rabbit skeletal muscle (rabbit, UniProt Q28641 1-1938); assay: SPR; BIAcore X100; His-tagged UNC45B constructs (0.2 uM) captured on Ni2+-NTA sensor chip; myosin analyte 1 up to 3500 nM at 5 ul/min; HBS-P (10 mM HEPES, 150 mM NaCl, 0.005% Tween20, pH 7.4) plus 50 uM EDTA; 20 C; steady-state signal fitted to a 1:1 one-site saturation model; n=3; conditions: both partners purified
[2] = target: myosin II, full-length, purified from rabbit skeletal muscle (rabbit, UniProt Q28641 1-1938, Deletion taken as residues 600-630, as the methods print for the mutant; the description gives the loop as N601-D630, so residue 600 is uncertain. Full-length canonical isoform (931 aa) assumed. His-t); assay: as above; conditions: both partners purified

B1: UNC45B (wild type), Homo sapiens (natural protein, human, UniProt Q8IWX7 1-931, looked up)
chain: MAEVEAVQLKEEGNRHFQLQDYKAATNSYSQALKLTKDKALLATLYRNRAACGLKTESYVQAASDASRAIDINSSDIKALYRRCQALEHLGKLDQAFKDVQRCATLEPRNQNFQEMLRRLNTSIQEKLRVQFSTDSRVQKMFEILLDENSEADKREKAANNLIVLGREEAGAEKIFQNNGVALLLQLLDTKKPELVLAAVRTLSGMCSGHQARATVILHAVRIDRICSLMAVENEEMSLAVCNLLQAIIDSLSGEDKREHRGKEEALVLDTKKDLKQITSHLLDMLVSKKVSGQGRDQALNLLNKNVPRKDLAIHDNSRTIYVVDNGLRKILKVVGQVPDLPSCLPLTDNTRMLASILINKLYDDLRCDPERDHFRKICEEYITGKFDPQDMDKNLNAIQTVSGILQGPFDLGNQLLGLKGVMEMMVALCGSERETDQLVAVEALIHASTKLSRATFIITNGVSLLKQIYKTTKNEKIKIRTLVGLCKLGSAGGTDYGLRQFAEGSTEKLAKQCRKWLCNMSIDTRTRRWAVEGLAYLTLDADVKDDFVQDVPALQAMFELAKAGTSDKTILYSVATTLVNCTNSYDVKEVIPELVQLAKFSKQHVPEEHPKDKKDFIDMRVKRLLKAGVISALACMVKADSAILTDQTKELLARVFLALCDNPKDRGTIVAQGGGKALIPLALEGTDVGKVKAAHALAKIAAVSNPDIAFPGERVYEVVRPLVRLLDTQRDGLQNYEALLGLTNLSGRSDKLRQKIFKERALPDIENYMFENHDQLRQAATECMCNMVLHKEVQERFLADGNDRLKLVVLLCGEDDDKVQNAAAGALAMLTAAHKKLCLKMTQVTTQWLEILQRLCLHDQLSVQHRGLVIAYNLLAADAELAKKLVESELLEILTVVGKQEPDEKKAEVVQTARECLIKCMDYGFIKPVS
notes: UNC45B, Homo sapiens, codon optimized for E. coli, synthesized (GenScript), in a pET-28 vector; also called wild-type UNC-45B; source: E. coli BL21 DE3, purified (HisPur Ni-NTA resin)
Kd [1]: 0.33 µM

B2: UNC45B loop deletion mutant (residues 600-630), Homo sapiens (natural protein)
chain: MAEVEAVQLKEEGNRHFQLQDYKAATNSYSQALKLTKDKALLATLYRNRAACGLKTESYVQAASDASRAIDINSSDIKALYRRCQALEHLGKLDQAFKDVQRCATLEPRNQNFQEMLRRLNTSIQEKLRVQFSTDSRVQKMFEILLDENSEADKREKAANNLIVLGREEAGAEKIFQNNGVALLLQLLDTKKPELVLAAVRTLSGMCSGHQARATVILHAVRIDRICSLMAVENEEMSLAVCNLLQAIIDSLSGEDKREHRGKEEALVLDTKKDLKQITSHLLDMLVSKKVSGQGRDQALNLLNKNVPRKDLAIHDNSRTIYVVDNGLRKILKVVGQVPDLPSCLPLTDNTRMLASILINKLYDDLRCDPERDHFRKICEEYITGKFDPQDMDKNLNAIQTVSGILQGPFDLGNQLLGLKGVMEMMVALCGSERETDQLVAVEALIHASTKLSRATFIITNGVSLLKQIYKTTKNEKIKIRTLVGLCKLGSAGGTDYGLRQFAEGSTEKLAKQCRKWLCNMSIDTRTRRWAVEGLAYLTLDADVKDDFVQDVPALQAMFELAKAGTSDKTILYSVATTLVNCTNSYDVKEVIPELVQLAISALACMVKADSAILTDQTKELLARVFLALCDNPKDRGTIVAQGGGKALIPLALEGTDVGKVKAAHALAKIAAVSNPDIAFPGERVYEVVRPLVRLLDTQRDGLQNYEALLGLTNLSGRSDKLRQKIFKERALPDIENYMFENHDQLRQAATECMCNMVLHKEVQERFLADGNDRLKLVVLLCGEDDDKVQNAAAGALAMLTAAHKKLCLKMTQVTTQWLEILQRLCLHDQLSVQHRGLVIAYNLLAADAELAKKLVESELLEILTVVGKQEPDEKKAEVVQTARECLIKCMDYGFIKPVS
Kd [2]: 2.63 µM
